The nanobody polyreactivity screen of Harvey et al. (2022)

Assay: yeast display, Sf9 membrane polyspecificity reagent, FACS + sequencing; frameworks hold sequencing errors
Procedure, shortened: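 Galactose-induced (36–48 hours) yeast carrying a synthetic nanobody display library were exposed to 10% biotinylated, detergent-solubilized Sf9 membrane reagent at 4 °C for 1 hour. FACS followed streptavidin microbead enrichment, using low and high (top ~1%) gates for expression (anti-HA) and reagent binding (streptavidin). Colony PCR, MiSeq 2 × 250 sequencing and CDR-length filtering followed. Labels for polyreactivity reflect the gate of origin.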

QVQLVESGGGLVQAGGSLRLSCAASGSILYAYAMGWYRQAPGKERELLAAISSSGGGTYADSVKGRFTISRDNAKNTVYLQMNSLKPEDTAVYYCNADARGGIYFRGVKFDYWGQGTQVTVSS
polyreactivity (PSR sort gate): high polyreactivity

QVQLVESGGGLVQAGGSLRLSCAASGLISHNNAMGWYRQAPGKEREFVAAITTTGSSTYYADSVKGRFTISRDNEKNTVYLQMNSLKPEDTAVYYCAAESVPSRSEMDYWGQGTQVTVSS
polyreactivity (PSR sort gate): low polyreactivity

QVQLVESGGGLVQAGGSLPLSCAASGSIFDDYAMGWYRQAPGKEWELVAAITSGGSTYYADSVKGRFTISRDNAKYTVYLQMNSLKPEDTAVYYCAAPENKYDEYDYWGQGTQVTVSS
polyreactivity (PSR sort gate): low polyreactivity

QVQLVESGGGLVQAGGSLRLSCAASGRTFGYYVMGWYRQAPGKERELVAAITYTGGSTYYADSVKGRFTISRDNAKNTVYLQMNSLKPEDTAVYYCATSTYKPTYGYDYWGKGTQVTVSS
polyreactivity (PSR sort gate): low polyreactivity

QVQLVESGGGLVQAGGSLRLSCAASGRTFFPNAMGWYRQAPGKERELVASITSRGGGTYYADSVKGRFTISRDYAKNTVYLQMNSLKPEDTAVYYCADDRYYFSPGYNWWSEGYDYWGQGTQVTVSS
polyreactivity (PSR sort gate): low polyreactivity

QVQLVESGGGLVQAGGSLRLSCAASGSTFVGYTMGWYRQAPGKERELVASITSDGSTNYADSVKGRFTISRDNAKNTVYLQMNSLKPEDTAVYYCNADIRRHGGYAHEYWGQGTQVTVSS
polyreactivity (PSR sort gate): low polyreactivity

QVQLVESGGGLVQAGGSLRLSCAASGSIFIPNAMGWYRQAPGKERELVAAISLSDTTTYYADSVKGRFTISRDNAKNTVYLQMNSLKPEDTAVYYCAADYWFYPTSPVMDYWGQGTQVTVSS
polyreactivity (PSR sort gate): low polyreactivity

QVQLVESGGGLVQAGGSLRLSFAATGRICSPYAMGWYRQAPGKERELVAAISYDDGITYYADSVKGRFTISRDNATNTVYLQMNSLTPEDTAVYYCAADSVTRPAGDYWGQGTQVTVSS
polyreactivity (PSR sort gate): low polyreactivity

QFQLVESGGGLVQAGGSLRLSCAASAGYALGGYRQAPGKERELVAVINYSGGSTYYADSVKGRFTISRDNAKNTVYLQMNSLKPEDTAVYYCAAVYRRRYYWGQGTQVTVSS
polyreactivity (PSR sort gate): high polyreactivity

QVQLVESGGGLVQAGGSLRLSCAASGIIFGRYAMGWYRQSPGKERELVAAISSRGGSTYYADSVKGRFTISRDNAKNTVYLQMNSLKPEDTAVYYCAATWCFLRGSTKYYYWGQGTQVTVSS
polyreactivity (PSR sort gate): high polyreactivity

QVQLVESGGGLVQAGGSLRLSCAASGYTFHGYAMGWYRQAPGKERELVAVITQRGGSTSYADSVKGRFTISRDNAKNTVYLQMNSLKPEDTAVYYCEYYYWGQGTQVTVSS
polyreactivity (PSR sort gate): low polyreactivity

QVQLVESGGGLVQAGGSLRLSCAASGSIFQYYAMGWYRQAPGKERELVAVISFSDGSTYYADSVKGRFTISRDNAKNTVYLQMNSLKPEDTAVYYCARRRFSVSRRSYYWGQGTQVTVSS
polyreactivity (PSR sort gate): high polyreactivity

QVQLVESGGGLVQAGGSLRLSCAASGRTFYYYAMAWYRPAPGKERELVAAISWSGGRTYYADSVKGRFTISRDNAKNTVYLLMNSLIPVDTAVYYCNAEPPRGYTVSSGGEMDYWGQGTQVTVSS
polyreactivity (PSR sort gate): low polyreactivity

QLQLVESGGGLVQAGGSLRLSCAASGITFGANTMGWYRQAPGTERELVAAITISGGITHYADSVKGRFTISRDNAKNTVYLQMNSLKPEDTAVYYCAAGAYWRLYPYRQRNGGRMYYWGQGTQVTVSS
polyreactivity (PSR sort gate): low polyreactivity

QVQLVESGGGLVQAGGSLRLSCAASGRTFRYNAMGWYRQAPGKERELVAAITGGGSTYYADSVKGRFTISRDTAKNTVYLQMNSLKPEDTAVYYCAAANWRRIDYRYRFDYWGQGTQVTVSS
polyreactivity (PSR sort gate): high polyreactivity

QVQLVESGGGLVQAGGSLRLSCAASGSTFRKYAMGWYRQAPGKEREFVAAITWSTGTTYYADSVKGRFTISRDNAKNTVYLQMNSLKPEDTAVYYCAADSQPPHELYESIEHESWGQGTQVTVSS
polyreactivity (PSR sort gate): low polyreactivity

QVQLVESGGGLVQAGGSLRLSCAASGRTFRGNDMGWYRQAPGKERELVATITRNGGSTRYADSVKGRFTISRDNAKNTVYLQMNSLKPEDTAVYYCNARSRYFGYDYWGQGTQVTVSS
polyreactivity (PSR sort gate): high polyreactivity

QLQLVESGGGLVQAGGSLRLRCAASGNTFYQYAMGWYIQAPGQQREMVAAISSGGRTNYADSVKGRFTISRDNAKNNVYLQMNSLKPEDTAVYYFAADVGYFKSDYWGQGTQVTVSS
polyreactivity (PSR sort gate): low polyreactivity

QVQLVESGGGLVQAGGSLRFSCAASGITFSSYGMGWYRQAPGKERELVAAISWDSGSTYYADSVKGRFTISRDNAKNTVYLQMNSLKPEQTAVYYCNAVYYSVYRFDYWGQGTQVTVSS
polyreactivity (PSR sort gate): high polyreactivity

QVQLVESGGGLVQAGGSLRLSCAASGSIFRLYVMGWYRQAPGKERELVATITRSGGNTYYADSVKGRFTISRDNAKNTVYLQMNSLKPEDTAVYYCAAQSAKSGFYPYNRYDYWGQGTQVTVSS
polyreactivity (PSR sort gate): low polyreactivity

QVQLVESGGGLVQAGGSLRLSCAASGYTIESYTMGWYREAPGKEREFVAVISSSDTSTSYADSVKGRFTISRDNAKNTVYLQMNSLKPEDTAFYYCAAYSSPYYITYYWYNYDYWGQGTQVTVSS
polyreactivity (PSR sort gate): low polyreactivity

QVQLVESGGGLDQAGGSLRLSCAAAGITFTYYAMGWYRPAPGKERELVASITIGGGSTYYADSVKVRFTISRDNAKNTVYLQMKSLKPEDTAVYYCNAAFSVRHLYRYDYWGQGTQVTVSS
polyreactivity (PSR sort gate): low polyreactivity

QVQLVESGGGLVQAGGSLRLSSAASGRIFRHYAMGWYRQAPGKERELVASITRGDNTYYADSVKGRFTISRDNAKNTVYLQMNSLKPEDSAVYYCAAVFYSYSSASEYYYWGQGTQVTVSS
polyreactivity (PSR sort gate): high polyreactivity

QVQLVESGGGLVQAGGRLRLSCAASGTRYYAMGWYRQAPGNERELVAGIRWRDGGTYYADSVKGRFTISRDNAKNTVYLQMNSLKPEDTAVYYCNAAQSVELGYDYWGQGTQVTVSS
polyreactivity (PSR sort gate): high polyreactivity

QVQLVESGGGLVQAGGSLRLSCAASGFTFKYYAMGWYRQAPGKERELVAAISRGGSTYYADSVKGRFTFSRDNAKNTVYLQMNSLKPEDTAVYYCAARYVRVGYDYWGQGTQVTVSS
polyreactivity (PSR sort gate): high polyreactivity

QVQLVESVGGLVQAGGSLRLSCADSGSTFYFNAMGWYRQAPGKEREFVAAIEWSGGSTYYADSVKGRFTISRDNAKNTVYLQMNSLKPEDTAVYYCAAPYHYYGNSVGYADYDYWGQGTQVTVSS
polyreactivity (PSR sort gate): low polyreactivity

QVQLVESGGGLVQAGGSLRLSCAASGSIFYIYAMGWYRPAPGKEREFVAAITWTGGSTYYADSVKGRFTISRDNAKNTVYLQMNSLKPEDTAVYYCARATVGAWRKMYSWGQGTQVTVSS
polyreactivity (PSR sort gate): high polyreactivity

QVQLVESGGGLVQAGGSLRLSCAASGIIFYDNAMGWYRQAPGKERELVATINYSGDSTYYADSVKGRFTISRDNAKNTVYLQMNSLKPADTAVYYCATDGAWQYYWVYSHEYWGQGTQVTVSS
polyreactivity (PSR sort gate): low polyreactivity

QVQLVESGGGLVQAGGSLRLSSAASGITFYVYAKGRYRQAPGKERELVAAISGSGGNTYYADSVKGRFTISRDNAKNTVYLQMNSLKPEDTPVYYFNADDHSPYYGDLDYWGQGTQVSVSS
polyreactivity (PSR sort gate): low polyreactivity

QVQLVESGGGLVRAGGSLRLSCAASGSIFKYYAMGWYRQAPGKDRELVAAISWSGGSTFYADSVKGRFTISRDNAKNTVYLQMNSLKPEDTAVFYCARYKLRSGRSGDHDVYWGQGTQVTVSS
polyreactivity (PSR sort gate): high polyreactivity

QVQLVESGGGIVQAGGSLRLTCAASGFTFFYNAMGWYRQAPGKERELVAAITTNGGSTYYADSVKGRFTISRDNANNTVYLQMNSLKTEDTAVYYFAAEYGITEYDYWGQGTQVTVSS
polyreactivity (PSR sort gate): low polyreactivity

QVQLVESGAGLVQAGGSLRLSCAASGRTFSRNAMGWYRQPPGKERELVATISRGGGITFYADSVKGRYTISRDNAKNTVYLQMNSLKPEDTAVYYCNADVRYVGLRRIVDYWGQGTQVTVSS
polyreactivity (PSR sort gate): high polyreactivity

QVQLVESGGGLVQAGGSLRLSCAASGRIFSIYGMGWSRQAPGKEREFVASITYSGGSTYYADSVKGRFTISRDNAKNTVYLQMNSLQPEDTAVYYCAKYVFSAYDYWGQGTLVTVSS
polyreactivity (PSR sort gate): low polyreactivity

QVQLEESGGGLVQAGGNLRLSSAASGSIFSFNAMGCYRQAPGKERELVAAISWRGASTYYADSVKGRFTISRDNAKNTVYLQMNSLKPEDTAVYYCAAESTFILQYSYIYYDGHYDYCGQGTQVTVSS
polyreactivity (PSR sort gate): low polyreactivity

QVQLVESGGGLVQAGGSLRLSCAASGRTFEHYAMVWYRPAPGKERELVAAITWSGVSTYYADSVKGRFTISRDNAKNTVYLQMNSLKPEDTAVYYCAAKWLGYGFDYWGQGTQVTVSS
polyreactivity (PSR sort gate): low polyreactivity

QVQLVESGGGLVQAGGSLRLSCAASGRIFRRNAMGWYRQAPGKERELVAGIDSSGGSTYYADSVKGRFTISRDNAKNSVYLQMNSLKPEDTAVYYCNAVGYSQGYDYWGQGTQVTVSS
polyreactivity (PSR sort gate): high polyreactivity

QVQLVESGGGLLQAGGSLRLSCAASGSIFTSNAMGWYRQAPGKERELVAAITRGGNTNYADSVKGRFTISRDNAKNTVYLQMNSLKPEDTAVYYCATEGFVYSWLWEFEYWGQGTQVTVSS
polyreactivity (PSR sort gate): low polyreactivity

QVQLVESGGGLVQAGGSLRLSCAASGFTFKYYTMGWYRQAPGKERELVAVISRTGSTNYADSVKGRFTISRDNAKNTVYLQMNSLKPEDTAVYYFITARGKYAFFDVDYWGQGTQVTVTS
polyreactivity (PSR sort gate): high polyreactivity

QVQLVETGGGLVHAGGSLRLSCAASGFIFTEYAMGWYRQAPGKEMELVAAISRSDDATHYADSVKGRFTISRDNAKNTVSLQMNSLKTEDTAVYNCTVAPEGYSLVDTSPYYYWGQGTQVTVSS
polyreactivity (PSR sort gate): low polyreactivity

QVQLEESGGGLVQAGGSLRLSCAASGSTFSGYAMGWYRQATGKDRELVAAITSSGGRTYYADSVKGRFTISRDKAKNTVYLQMNSLKPEDTAVYYCAALYYHEYDYWGQGTQVTVSS
polyreactivity (PSR sort gate): low polyreactivity

QVQLVESGGGLVQAGGSLRLSCAASGSTFGFYAMGWYRQAPGKERELVAAISWNDGSTYYADSVKGRFTISRDNAKNTVYLQMNSLKPEDTAVYYCATEYSLWYTRDWQRYEYWGQGTQVTVSS
polyreactivity (PSR sort gate): high polyreactivity

QVQLVESGGGLVQAGGSLRLSCAASGITFNGNAMGWYRQAPGKERELVAAITRTGTDTSYADSVKGRFTISRDNAKNTVYLQMNSLKPEDTAVYYCAAPPYNGYRYGTTGYYWGQGTQVTVSS
polyreactivity (PSR sort gate): low polyreactivity

QVQLVESGGGLVQAAGSLRLSCAASGSIFGPNAMGWYRQAPGKERELVASITLSGGSTYYADSVKGRFTISRDNAKNNVYLQMNSLKPVDTAVYYCNADLLPADAPLWVTGGDYWGQGTQVTVSS
polyreactivity (PSR sort gate): low polyreactivity
